Source: article PMC6533321 (EJNMMI Research, 2019)
Values belong to the compound of their own block, whether it stands above or below them. Residues, ends and D or L forms follow the SMILES beside them.

Legend:
[1] = target: hSST5 (Homo sapiens, UniProt P35346); test: Competition binding against [^125I-Tyr^25]LTT-SS28 in HEK293-hSST5 cell membranes; details: mean ± sd, read-out: IC50 (displacement of [^125I-Tyr^25]LTT-SS28)
Method: (§1) The HEK293 cell line was transfected to stably express each of the hSST2/3/5 and the resultant HEK293-hSST2/3/5 cells used for receptor affinity assessments were donated by Prof. S. Schultz (Institute of Pharmacology and Toxicology, University Hospital, Friedrich Schiller University Jena, Germany). Cells were cultured at 37 °C and 5% CO2 in Dulbecco’s modified Eagle’s medium containing 10% fetal bovine serum, 100 U/mL penicillin, […] G418, as previously described. Culture reagents were from Gibco BRL, Life Technologies, and Biochrom KG Seromed.
(§2) [^125I-Tyr^25]LTT-SS28 served as radioligand and LTT-SS28 ([Leu^8,DTrp^22,Tyr^25]SS28) as reference compound [28, 30, 32]. Briefly, radioligand (70 μL, 50 pM corresponding to ≈ 40,000 cpm), test peptide (30 μL solution of increasing concentrations, 10^− 5–10^− 13 M), and membrane homogenates (200 μL) were added to each assay tube (total volume of 300 μL in binding solution: 50 mM HEPES pH 7.4, 1% BSA, 5.5 mM MgCl2, 35 μM bacitracin) in triplicates for each concentration point. Samples were incubated for 60 min at 22 °C in an Incubator-Orbital Shaker unit (MPM Instr. SrI). […]

[2] = target: T1, hSST3 (Homo sapiens, UniProt P32745); test: Competition binding against [^125I-Tyr^25]LTT-SS28 in HEK293-hSST3 cell membranes; details: mean ± sd, read-out: IC50 (displacement of [^125I-Tyr^25]LTT-SS28)
T1 construct: expressed in transfected cells; donated by Prof; S. Schultz, Jena
T1 sequence (P32745 whole entry): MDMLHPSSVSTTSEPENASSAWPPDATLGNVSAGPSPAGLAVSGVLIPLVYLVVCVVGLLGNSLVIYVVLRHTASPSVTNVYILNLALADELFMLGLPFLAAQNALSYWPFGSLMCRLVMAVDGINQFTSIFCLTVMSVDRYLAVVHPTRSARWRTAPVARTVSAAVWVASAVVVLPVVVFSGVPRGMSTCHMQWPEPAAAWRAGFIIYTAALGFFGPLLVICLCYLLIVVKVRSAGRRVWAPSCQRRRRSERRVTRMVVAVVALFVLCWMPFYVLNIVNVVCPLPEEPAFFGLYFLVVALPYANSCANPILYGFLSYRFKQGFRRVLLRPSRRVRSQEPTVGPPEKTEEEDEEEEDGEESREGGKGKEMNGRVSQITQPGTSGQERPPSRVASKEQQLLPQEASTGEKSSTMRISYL
Method: as §1
[^125I-Tyr^25]LTT-SS28 served as radioligand and LTT-SS28 ([Leu^8,DTrp^22,Tyr^25]SS28) as reference compound [28, 30, 32]. Briefly, radioligand (70 μL, 50 pM corresponding to ≈ 40,000 cpm), test peptide (30 μL solution of increasing concentrations, 10^− 5–10^− 13 M), and membrane homogenates (200 μL) were added to each assay tube (total volume of 300 μL in binding solution: 50 mM HEPES pH 7.4, 1% BSA, 5.5 mM MgCl2, 35 μM bacitracin) in triplicates for each concentration point. Samples were incubated for 60 min at 22 °C in an Incubator-Orbital Shaker unit (MPM Instr. SrI). […] Filters were collected, and their activity measured in a γ-counter (automated well-type multisample gamma counter; NaI(Tl) 3″ crystal, Canberra Packard Auto-Gamma 5000 series instrument).

[3] = target: T2, hSST2 (Homo sapiens, UniProt P30874); test: Competition binding against [^125I-Tyr^25]LTT-SS28 in HEK293-hSST2 cell membranes; details: mean ± sd, read-out: IC50 (displacement of [^125I-Tyr^25]LTT-SS28)
T2 construct: expressed in transfected cells; donated by Prof; S. Schultz, Jena
T2 sequence (P30874 whole entry): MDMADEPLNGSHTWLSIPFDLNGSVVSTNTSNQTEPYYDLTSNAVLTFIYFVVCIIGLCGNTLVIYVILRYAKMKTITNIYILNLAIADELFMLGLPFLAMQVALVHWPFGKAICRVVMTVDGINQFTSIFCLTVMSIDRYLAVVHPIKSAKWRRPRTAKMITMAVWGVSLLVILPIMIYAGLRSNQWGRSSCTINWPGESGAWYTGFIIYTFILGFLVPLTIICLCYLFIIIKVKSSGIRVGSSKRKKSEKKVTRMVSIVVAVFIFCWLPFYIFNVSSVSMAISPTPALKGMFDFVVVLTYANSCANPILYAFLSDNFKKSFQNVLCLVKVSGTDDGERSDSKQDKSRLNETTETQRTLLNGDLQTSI
Method: as §1, §2

[4] = system: patient with a well-differentiated NET; test: PET/CT in a patient with well-differentiated NET; details: human, in vivo
Method: Despite octreotide therapy, the disease was progressing, and in 2015, the patient was treated with peptide receptor radionuclide therapy (PRRT), administering 5 GBq of [^90Y]Y-DOTA-TOC. […] Written informed consent was obtained from the patient in accordance with paragraph 37 of the updated Declaration of Helsinki, ‘Unproven Interventions in Clinical Practice’, and in accordance with the German Medical Products Act AMG §13 2b.

[5] = system: normal liver; details: in vivo; cited from earlier work
[6] = Ex vivo biodistribution 60 min p.i.; details: female, NMRI-nude, mouse, in vivo, iv, total radioactivity
Method: (§3) A number of 2 × 10^6 MPC-mCherry cells were transplanted subcutaneously into the right shoulder of female NMRI-nude mice (8 to 10 weeks old, RjOrl:NMRI-Foxn1^nu /Foxn1^nu, Janvier Labs). […] Animals were sacrificed at 60 min post-injection (p.i.). […] The activity of the tissue samples was decay-corrected and calibrated by comparing the counts in tissue with the counts in aliquots of the injected radiotracer that had been measured in the γ-counter at the same time. The activity in the selected organs was expressed as percent-injected activity per organ (%IA) and the activity concentration in tissues and organs as standardised uptake value (SUV in [MBq activity/g tissue]/[MBq injected activity/g body weight]). Values are quoted as mean ± standard deviation for each group of animals.

[7] = system: MPC-mCherry tumour-bearing NMRI-nude mice; test: Ex vivo biodistribution 60 min p.i.; details: female, mouse, in vivo, iv, 1 h
Method: as §3

Sequence of hSST5 (P35346 whole entry): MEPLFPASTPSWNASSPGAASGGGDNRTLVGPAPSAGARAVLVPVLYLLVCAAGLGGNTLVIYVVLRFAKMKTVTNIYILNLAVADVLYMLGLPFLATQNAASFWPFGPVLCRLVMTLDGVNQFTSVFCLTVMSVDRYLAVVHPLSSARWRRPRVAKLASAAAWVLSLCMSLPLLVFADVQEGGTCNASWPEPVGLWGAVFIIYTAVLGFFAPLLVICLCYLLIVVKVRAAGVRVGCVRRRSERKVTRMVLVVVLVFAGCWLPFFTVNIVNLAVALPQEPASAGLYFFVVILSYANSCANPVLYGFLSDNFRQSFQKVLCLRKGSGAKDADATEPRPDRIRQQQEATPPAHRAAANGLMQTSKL

IC50 [1]: 0.17 ± 0.03 nM | IC50 [2]: 0.09 ± 0.01 nM | IC50 [3]: 0.05 ± 0.01 nM
Compound: CC(C)C[C@H](NC(=O)[C@H](C)NC(=O)[C@@H]1CCCN1C(=O)[C@H](CC(N)=O)NC(=O)[C@H](CO)NC(=O)[C@H](CC(N)=O)NC(=O)[C@H](C)NC(=O)[C@@H](N)CO)C(=O)N[C@@H](C)C(=O)N1CCC[C@H]1C(=O)N[C@@H](CCCN=C(N)N)C(=O)N[C@@H](CCC(=O)O)C(=O)N[C@@H](CCCN=C(N)N)C(=O)N[C@@H](CCCCN)C(=O)N[C@@H](C)C(=O)NCC(=O)N[C@H]1CSSC[C@@H](C(=O)O)NC(=O)[C@H](CO)NC(=O)[C@H]([C@@H](C)O)NC(=O)[C@H](Cc2ccc(O)cc2)NC(=O)[C@H]([C@@H](C)O)NC(=O)[C@H](CCCCN)NC(=O)[C@@H](Cc2c[nH]c3ccccc23)NC(=O)[C@H](Cc2ccccc2)NC(=O)[C@H](Cc2ccccc2)NC(=O)[C@H](CC(N)=O)NC(=O)[C@H](CCCCN)NC1=O [LTT-SS28] (HELM PEPTIDE1{S.A.N.S.N.P.A.L.A.P.R.E.R.K.A.G.C.K.N.F.F.[dW].K.T.Y.T.S.C}$PEPTIDE1,PEPTIDE1,17:R3-28:R3$$$V2.0)

Compound: C[C@@H](O)[C@@H]1NC(=O)[C@H](CCCCN)NC(=O)[C@@H](Cc2c[nH]c3ccccc23)NC(=O)[C@H](Cc2ccc(O)cc2)NC(=O)[C@@H](NC(=O)[C@@H](Cc2ccccc2)NC(=O)CN2CCN(CC(=O)O)CCN(CC(=O)O)CCN(CC(=O)O)CC2)CSSC[C@@H](C(=O)N[C@H](CO)[C@@H](C)O)NC1=O [[^68Ga]Ga-DOTA-TOC, metal not drawn]
SUV, blood [4]: 2.0 SUV | SUV, liver [4]: 23.1 SUV | SUV, pituitary [4]: 23.7 SUV | SUV, target lesion [4]: 71.1 SUV | SUVmax of the liver, previous value reported [5]: 12.8 ± 3.6 | SUV at 1 h ([6]; Blood radioactivity concentration): 0.06 ± 0.01 SUV | tissue uptake dose at 1 h ([6]; Brain uptake): 0.02 ± 0.01 %ID | tissue uptake dose at 1 h ([6]; Femur uptake): 0.04 ± 0.04 %ID | tissue uptake dose at 1 h ([6]; Kidneys uptake): 3.34 ± 0.87 %ID | tissue uptake dose at 1 h ([6]; Liver uptake): 0.45 ± 0.09 %ID | tissue uptake dose at 1 h ([6]; Lung uptake): 0.12 ± 0.01 %ID | tissue uptake dose at 1 h ([6]; Ovaries uptake): 0.02 ± 0.01 %ID | tissue uptake dose at 1 h ([6]; Pancreas uptake): 0.42 ± 0.06 %ID | tissue uptake dose at 1 h ([6]; Stomach uptake): 1.34 ± 0.39 %ID | tissue uptake dose at 1 h ([6]; Thyroid uptake): 0.01 %ID | dose excreted at 1 h ([6]; Urine calc.): 83.3 ± 3.73% | Intestine uptake [7]: 2.11±1.33 %IA | Tumour radioactivity concentration [7]: 4.52 ± 1.96 SUV | Tumour uptake [7]: 2.40±1.94 %IA
